{"source": "paper doi:10.1101/2020.11.14.20231811", "target": "SARS-CoV-2 spike S1 subunit (SARS-CoV-2, UniProt P0DTC2 13-685)", "assay": "phosphate buffer", "data": [{"binder": "CoV2-RBD-1C, MB/thiol-modified (structured_DNA, 5' methylene blue; 3' thiol C3 (ThioMC3-D)) DNA: CAGCACCGACCTTGTGCTTTGGGAGTGCTGGTCCAAGGGCGTTAATGGACA", "values": [{"measurement": "binding result", "result": "binds"}]}]}
